In article PMC12377726 (Proceedings of the National Academy of Sciences of the …, 2025):

Molecular target: eOD-GT8 (engineered outer domain germline-targeting version 8), monomer (HIV-1 gp120 engineered outer domain, …)
Experiment: SPR
Conditions: both partners purified

B1: G001_gp1_V10_VRC01c_179 (antibody, V domains shown)
VH: QVQLVQSGADVKKPGASVKVSCKASGYTFTDYYMHWVRQAPGQGLEWMGWINPNSGGTNYAQKFQDRVTMTRDTSVSTAYMEVSGLRSDDTAVYYCARIKLCNGGSCNWSLGYWGQGSLVTVSS
VL: DIQMTQSPSSLSASVGDRVTITCQASQDISNYLNWYQQKPGKAPKLLIYGASNLETGVPSRFSGSGSGTDFTFTISSLQPEDIATYYCQQYEFFGPGTKVDIK
notes: also called G001-179
For B1, the Kd was 0.13 nM.
